Reference: article PMC9700832 (2022)

B1: B. thuringiensis serovar israelensis LexA (natural protein)
chain: MEKLTKRQQDILDFIKLKVQEKGYPPSVREIGQAVGLASSSTVHGHLSRLEEKGYIRRDPTKPRAIEILGEDRMDTETQSVIQVPIVGKVTAGLPITAVESVEEHFPLPASIVAGADQVFMLRISGDSMIEAGIFDGDLVVVRQQQSAYNGEIVVALTEDNEATVKRFYKEKDHFRLQPENSSLEPIILKQVSVIGKVIGVYRDLH

Tests used:
Test in all cases: SPR
[1] = target: B1
[2] = target: tectiviral gp7 homolog from B. cereus AND1284 phage Sato (phage Sato (B. cereus AND1284))
[3] = target: tectiviral gp7 homolog from the phage found in B. thuringiensis serovar aizawai (tectiviral phage found in B. …)
[4] = target: tectiviral gp7 homolog from B. anthracis phage AP50 (phage AP50 (B. anthracis))
[5] = target: tectiviral gp7 homolog from the phage found in B. cereus VD184 (tectiviral phage found in B. cereus …)

MRDKLLDFIIELSQSSKQVVSKSYVIDRLMQVTKEDYKELEKNVEGKKDD (natural protein) [gp7 protein of GIL01 phage]
Kd [1]: 169 nM

B1
Kd [2]: 190 nM
Kd [3]: 150 nM
Kd [4]: 167 nM
Kd [5]: 148 nM

MRDKLLDFIIELSQSSKQVVAKDYVIDRLMQVTKEDYKEMEKKTEGKKN (natural protein) [tectiviral gp7 homolog from B. mycoides VDm034 phage Lima]
Kd [1]: 185 nM
